In assay [1] the target is T1, human glucose-dependent insulinotropic polypeptide (GIP) receptor (human, UniProt P48546 22-466).
T1 construct: whole, on cells; Assayed as crude membranes of stably transfected CHO cells; also called hGIPR; human GIP receptor
T1 sequence (looked up): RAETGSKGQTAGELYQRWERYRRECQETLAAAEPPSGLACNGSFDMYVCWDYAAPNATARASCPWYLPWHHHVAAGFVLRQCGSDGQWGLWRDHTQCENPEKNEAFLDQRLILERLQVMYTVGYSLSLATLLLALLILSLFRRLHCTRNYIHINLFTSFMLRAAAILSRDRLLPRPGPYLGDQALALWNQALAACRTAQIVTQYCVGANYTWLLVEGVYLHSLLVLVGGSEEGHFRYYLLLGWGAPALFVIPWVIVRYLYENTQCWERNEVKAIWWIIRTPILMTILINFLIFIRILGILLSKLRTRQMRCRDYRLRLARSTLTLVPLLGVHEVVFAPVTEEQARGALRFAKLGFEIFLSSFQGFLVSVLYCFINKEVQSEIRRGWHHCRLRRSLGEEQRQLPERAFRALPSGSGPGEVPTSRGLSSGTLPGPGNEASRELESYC
Put plainly: SPA, displacement of [125I]-GIP from hGIPR membranes, 0.1% bacitracin. A general note: In a radioligand displacement assay an active substance lowers the binding of a labelled ligand.

In a further assay the target is T2, human GLP-1 receptor (human, UniProt P43220 24-463).
T2 construct: whole, on cells; Assayed as crude membranes of stably transfected HEK293 cells; also called hGLP1R; hGLP-1R
Put plainly: SPA, displacement of [125I]-GLP-1 from hGLP-1R membranes, 0.1% bacitracin. A digest of the protocol: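 Binding buffer: 25 mM HEPES pH 7.4, 2.5 mM CaCl₂, 1 mM MgCl₂, 0.1% bacitracin, 0.003% Tween-20, protease inhibitors without EDTA. Four-parameter nonlinear regression; Kᵢ given as geometric mean ± SEM, n = independent replicates run on different days.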

A further assay addresses T3, human glucagon receptor (human, UniProt P47871 26-477).
T3 construct: whole, on cells; Assayed as crude membranes of stably transfected HEK293 cells; also called hGcgR; GcgR
Put plainly: SPA, displacement of [125I]-Gcg from hGcgR membranes, 0.1% bacitracin. The method in brief: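 Binding buffer: 25 mM HEPES pH 7.4, 2.5 mM CaCl₂, 1 mM MgCl₂, 0.003% Tween-20, protease inhibitors without EDTA. Counted by scintillation after 12 h incubation/settling at room temperature. Four-parameter nonlinear fit; Kᵢ given as geometric mean ± SEM of independent replicates run on different days.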

Starred links: 1 amine or outer side, 2 acyl side, 3 side chain; linkers in the order of their positions; H or OH if unused. Non-standard residues stand in square brackets, D forms with d. Groups on a side chain read outwards from the residue. No end group written: not given here. *: point of attachment. C20 diacid = O=C(O)CCCCCCCCCCCCCCCCCCC(=O)*; γGlu = O=C(O)[C@H](CCC(=O)[*:2])N[*:1]; 4Pal = N[C@@H](Cc1ccncc1)C(=O)O; αMeL = CC(C)C[C@](C)(N)C(=O)O; Orn = NCCC[C@H](N)C(=O)O; AEEA = NCCOCCOCC(=O)O; Aib = CC(C)(N)C(=O)O

A word on the Ki: it is the dissociation constant of the complex between target and ligand, obtained from inhibition or displacement. A higher Ki goes with a looser hold on the target.

T3 sequence (P47871 26-477): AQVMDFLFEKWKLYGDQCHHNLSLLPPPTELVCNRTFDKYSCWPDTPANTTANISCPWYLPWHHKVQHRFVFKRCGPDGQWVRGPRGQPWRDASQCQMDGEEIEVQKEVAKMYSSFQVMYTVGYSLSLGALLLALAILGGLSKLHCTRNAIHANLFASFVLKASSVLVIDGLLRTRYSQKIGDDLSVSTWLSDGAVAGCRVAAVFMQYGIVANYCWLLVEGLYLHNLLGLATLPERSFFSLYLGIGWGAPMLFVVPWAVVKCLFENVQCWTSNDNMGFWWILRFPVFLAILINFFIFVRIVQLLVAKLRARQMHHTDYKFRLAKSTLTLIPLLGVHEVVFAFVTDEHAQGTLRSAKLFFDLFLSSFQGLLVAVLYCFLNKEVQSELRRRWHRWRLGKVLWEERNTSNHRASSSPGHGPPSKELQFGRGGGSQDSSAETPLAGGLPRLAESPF

B1: Example 81 (peptide)
peptide: Y[Aib]EGTFISDYSI[αMeL]LD[Orn]K([AEEA-AEEA-γGlu-C20 diacid])HQ[Aib]DFVE[4Pal]LLEQGPSSGAPPPS-NH2
modifications: N-terminus assumed
SMILES: CC[C@H](C)[C@H](NC(=O)[C@H](Cc1ccccc1)NC(=O)[C@@H](NC(=O)CNC(=O)[C@H](CCC(=O)O)NC(=O)C(C)(C)NC(=O)[C@@H](N)Cc1ccc(O)cc1)[C@@H](C)O)C(=O)N[C@@H](CO)C(=O)N[C@@H](CC(=O)O)C(=O)N[C@@H](Cc1ccc(O)cc1)C(=O)N[C@@H](CO)C(=O)N[C@H](C(=O)N[C@@](C)(CC(C)C)C(=O)N[C@@H](CC(C)C)C(=O)N[C@@H](CC(=O)O)C(=O)N[C@@H](CCCN)C(=O)N[C@@H](CCCCNC(=O)COCCOCCNC(=O)COCCOCCNC(=O)CC[C@H](NC(=O)CCCCCCCCCCCCCCCCCCC(=O)O)C(=O)O)C(=O)N[C@@H](Cc1c[nH]cn1)C(=O)N[C@@H](CCC(N)=O)C(=O)NC(C)(C)C(=O)N[C@@H](CC(=O)O)C(=O)N[C@@H](Cc1ccccc1)C(=O)N[C@H](C(=O)N[C@@H](CCC(=O)O)C(=O)N[C@@H](Cc1ccncc1)C(=O)N[C@@H](CC(C)C)C(=O)N[C@@H](CC(C)C)C(=O)N[C@@H](CCC(=O)O)C(=O)N[C@@H](CCC(N)=O)C(=O)NCC(=O)N1CCC[C@H]1C(=O)N[C@@H](CO)C(=O)N[C@@H](CO)C(=O)NCC(=O)N[C@@H](C)C(=O)N1CCC[C@H]1C(=O)N1CCC[C@H]1C(=O)N1CCC[C@H]1C(=O)N[C@@H](CO)C(N)=O)C(C)C)[C@@H](C)CC
In the case of B1, the Ki in assay [1] amounted to 0.0374 nM; in the assay with human GLP-1 receptor, 714 nM; in the assay with human glucagon receptor, 699 nM.

B2: Example 82 (peptide)
peptide: Y[Aib]EGTFISDYSI[αMeL]LD[Orn]K([AEEA-AEEA-γGlu-C20 diacid])HQ[Aib]DFVE[4Pal]LLEGGPSSGAPPPS-NH2
modifications: N-terminus assumed
SMILES: CC[C@H](C)[C@H](NC(=O)[C@H](Cc1ccccc1)NC(=O)[C@@H](NC(=O)CNC(=O)[C@H](CCC(=O)O)NC(=O)C(C)(C)NC(=O)[C@@H](N)Cc1ccc(O)cc1)[C@@H](C)O)C(=O)N[C@@H](CO)C(=O)N[C@@H](CC(=O)O)C(=O)N[C@@H](Cc1ccc(O)cc1)C(=O)N[C@@H](CO)C(=O)N[C@H](C(=O)N[C@@](C)(CC(C)C)C(=O)N[C@@H](CC(C)C)C(=O)N[C@@H](CC(=O)O)C(=O)N[C@@H](CCCN)C(=O)N[C@@H](CCCCNC(=O)COCCOCCNC(=O)COCCOCCNC(=O)CC[C@H](NC(=O)CCCCCCCCCCCCCCCCCCC(=O)O)C(=O)O)C(=O)N[C@@H](Cc1c[nH]cn1)C(=O)N[C@@H](CCC(N)=O)C(=O)NC(C)(C)C(=O)N[C@@H](CC(=O)O)C(=O)N[C@@H](Cc1ccccc1)C(=O)N[C@H](C(=O)N[C@@H](CCC(=O)O)C(=O)N[C@@H](Cc1ccncc1)C(=O)N[C@@H](CC(C)C)C(=O)N[C@@H](CC(C)C)C(=O)N[C@@H](CCC(=O)O)C(=O)NCC(=O)NCC(=O)N1CCC[C@H]1C(=O)N[C@@H](CO)C(=O)N[C@@H](CO)C(=O)NCC(=O)N[C@@H](C)C(=O)N1CCC[C@H]1C(=O)N1CCC[C@H]1C(=O)N1CCC[C@H]1C(=O)N[C@@H](CO)C(N)=O)C(C)C)[C@@H](C)CC
With B2, the inhibition constant Ki in assay [1] amounted to 0.0617 nM; with human GLP-1 receptor, 388 nM; with human glucagon receptor it was 305 nM.
